The target of this assay is YFP–CPR5 (translational fusion of the yellow fluorescent protein to CPR5) (Arabidopsis thaliana) (UniProt Q9LV85). In words: FRET or BRET. A general note: BRET reads energy transfer from a luciferase to a nearby fluorophore.

Consider one substance from publication PMC5340296.

UniProt Q9LV85, sequence (Q9LV85 whole entry, the tested form may be a part): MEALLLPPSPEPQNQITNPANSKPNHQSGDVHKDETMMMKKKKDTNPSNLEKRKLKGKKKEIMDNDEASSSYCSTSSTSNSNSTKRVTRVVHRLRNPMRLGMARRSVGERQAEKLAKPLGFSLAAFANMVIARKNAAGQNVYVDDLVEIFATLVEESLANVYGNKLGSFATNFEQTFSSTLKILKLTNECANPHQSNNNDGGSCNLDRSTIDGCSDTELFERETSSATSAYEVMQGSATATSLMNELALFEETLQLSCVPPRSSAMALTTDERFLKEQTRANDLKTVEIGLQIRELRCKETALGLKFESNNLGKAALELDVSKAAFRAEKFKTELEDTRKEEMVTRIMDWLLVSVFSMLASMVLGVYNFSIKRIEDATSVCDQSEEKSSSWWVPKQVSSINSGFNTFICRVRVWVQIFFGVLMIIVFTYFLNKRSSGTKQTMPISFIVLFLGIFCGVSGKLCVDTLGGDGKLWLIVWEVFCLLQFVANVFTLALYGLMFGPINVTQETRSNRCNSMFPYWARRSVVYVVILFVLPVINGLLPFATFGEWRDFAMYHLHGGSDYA

For “CFP–sbZIP60 (cyan fluorescent protein fused to spliced full-length bZIP60) (natural protein)”, the FRET efficiency came out at 10%.
